According to patent US20250368754A1 (KANAPH THERAPEUTICS, published 2025):

T1: recombinant human herpes virus entry mediator (HVEM) (human, UniProt Q92956 39-202)
T1 construct: neither construct is described; also called human HVEM; recombinant human HVEM protein (R&D systems)
T1 sequence (looked up): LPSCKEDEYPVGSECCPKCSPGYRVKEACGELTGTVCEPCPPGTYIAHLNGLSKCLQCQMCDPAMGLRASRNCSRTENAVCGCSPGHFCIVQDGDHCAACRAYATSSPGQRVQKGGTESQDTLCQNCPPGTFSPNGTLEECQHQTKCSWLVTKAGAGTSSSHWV

T2: human DcR3 (human, UniProt O95407 30-300)
T2 construct: also called LIGHT receptor DcR3
T2 sequence (looked up): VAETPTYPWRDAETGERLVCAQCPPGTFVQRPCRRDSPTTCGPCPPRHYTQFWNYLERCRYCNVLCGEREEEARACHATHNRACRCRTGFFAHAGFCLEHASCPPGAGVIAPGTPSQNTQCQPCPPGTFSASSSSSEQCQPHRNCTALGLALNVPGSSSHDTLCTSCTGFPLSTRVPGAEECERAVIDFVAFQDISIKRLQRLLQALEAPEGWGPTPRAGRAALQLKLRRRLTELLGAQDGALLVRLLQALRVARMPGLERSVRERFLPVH

T3: recombinant human FAP (human, UniProt Q12884 26-760)
T3 construct: also called rhFAP
T3 sequence (looked up): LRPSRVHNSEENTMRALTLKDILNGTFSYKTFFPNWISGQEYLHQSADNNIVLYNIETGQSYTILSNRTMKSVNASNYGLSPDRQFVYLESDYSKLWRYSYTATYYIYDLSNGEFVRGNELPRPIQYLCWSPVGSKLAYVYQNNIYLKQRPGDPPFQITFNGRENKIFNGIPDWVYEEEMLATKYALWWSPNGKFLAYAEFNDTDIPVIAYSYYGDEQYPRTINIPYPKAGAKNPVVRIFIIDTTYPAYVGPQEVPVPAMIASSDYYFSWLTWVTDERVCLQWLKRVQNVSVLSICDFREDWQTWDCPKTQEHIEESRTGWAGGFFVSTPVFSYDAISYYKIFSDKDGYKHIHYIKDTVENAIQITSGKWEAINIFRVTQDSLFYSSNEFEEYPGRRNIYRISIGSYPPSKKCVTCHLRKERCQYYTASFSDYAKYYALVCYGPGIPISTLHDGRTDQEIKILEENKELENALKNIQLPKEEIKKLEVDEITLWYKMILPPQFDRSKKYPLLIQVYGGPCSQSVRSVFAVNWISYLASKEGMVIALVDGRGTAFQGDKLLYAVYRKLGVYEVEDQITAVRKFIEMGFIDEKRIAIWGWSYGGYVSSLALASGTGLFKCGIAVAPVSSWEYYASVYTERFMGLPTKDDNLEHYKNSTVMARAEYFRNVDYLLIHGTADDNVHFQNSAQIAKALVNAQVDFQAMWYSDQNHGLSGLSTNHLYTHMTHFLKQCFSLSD


Legend:
[1] = target: T4, human LTβR on A375 cells (human, UniProt P36941 31-435); assay: cell-based or functional assay
[2] = target: T4, human LTβR on A375 cells; assay: flow cytometry on A375 cells, serial dilution from 500 nM, anti-human IgG detection
Method: (§1) Specifically, the A375 cell line was prepared by suspending in a FACS buffer solution at 1×10⁵ cells/100 μL, and treated with 100 μL each of T3.01, T3.07, T3.04, and T3.18 prepared by suspending at 500 nM and diluting by serial dilution. The cells were washed twice with a FACS buffer solution. The cells were stained with an anti-human IgG antibody (Biolegend). The expression ratio of the stained cells was measured using BD LSR and analyzed using FlowJo software.

[3] = target: T4, human LTβR on A375 cells; assay: flow cytometry on A375 cells, serial dilutions, anti-human IgG detection, MFI against TMEkine [nM]
Method: as §1

[4] = target: T1, recombinant human herpes virus entry …; assay: sandwich ELISA: plate coated with recombinant human HVEM 1 ug/mL, fusion protein from 1 nM in serial dilution, detected with biotinylated recombinant human FAP and streptavidin conjugate, OD 450 nm
Method: Considering that LIGHT of the fusion protein must bind to the herpes virus entry mediator (HVEM) for the action, it was confirmed that T3.01 binds to the recombinant human HVEM, as follows: [0370] (i) The recombinant human HVEM protein (R&D systems) was suspended at 1 μg/mL, dispensed in a 96-well immune plate, and treated for 24 hours. [0371] (ii) The wells were washed with a wash solution, and then blocking was performed for 1 hour with 1% BSA (bovine serum albumin, Sigma) solution. [0372] (iii) The wells were washed with a wash solution, and then T3.01, T3.14, T3.16, T3.17, T3.18 and T3.10, or T3.05, T3.06, T3.04, T3.14 and T3.10 were suspended at 1 nM and diluted by serial dilution. The wells were treated with the diluted T3.01, T3.14, T3.16, T3.17, T3.18 and T3.10, or T3.05, T3.06, T3.04, T3.14 and T3.10 for 2 hours. [0373] (iv) The wells were washed with a wash solution, and then treated with the human recombinant FAP-biotin diluted at 0.5 μg/mL for 2 hours. [0374] (v) The wells were washed with a wash solution, and then treated with streptavidin-RP for 20 minutes. [0375] (vi) The wells were washed with a wash solution, and then treated with a substrate solution for 20 minutes. [0376] (vii) The wells were treated with a stop solution, and the absorbance was measured at 450 nm.

[5] = target: T5, recombinant human lymphotoxin beta receptor (LTβR) (human, UniProt P36941 28-227, limits assumed); assay: SPR, human LTβR immobilised on CM5, fusion protein as analyte, 1:1 binding model
T5 construct: neither construct is described; also called human LTβR; recombinant human LTβR protein
Method: Specifically, the surface of the CM5 chip was activated with a 1:1 mixture of […], and 5 μg/mL of human LTβR was immobilized for 60 seconds at a rate of 10 μL/min. The remaining active ester groups were blocked with 1 M ethanolamine. […] The diluted fusion proteins were reacted at a rate of 30 μL/min. The association and dissociation times were 180 seconds and 400 seconds, respectively. After the dissociation step, stabilization was performed for 60 seconds, and then the regeneration step was performed for 30 seconds with a 10 mM glycine pH 1.5 solution at a rate of 30 μL/min.

[6] = target: T1, recombinant human herpes virus entry …; assay: SPR, human HVEM immobilised on CM5, fusion protein as analyte, 1:1 binding model
Method: (§2) Specifically, the surface of the CM5 chip was activated with a 1:1 mixture of […], and 5 to 6 μg/mL of human HVEM was immobilized for 60 seconds at a rate of 10 μL/min. The remaining active ester groups were blocked with 1 M ethanolamine. T3.01, T3.07, T3.09, T3.14, and T3.18 were each diluted to 100 nM in 1×HBS-EP+buffer solution and diluted by serial dilution. The diluted fusion proteins were reacted at a rate of 30 μL/min. The association and dissociation times were 180 seconds and 400 seconds, respectively. After the dissociation step, stabilization was performed for 60 seconds, and then the regeneration step was performed for 30 seconds with a 10 mM glycine pH 1.5 solution at a rate of 30 μL/min.

[7] = target: T2, human DcR3; assay: SPR, human DcR3 immobilised on CM5, fusion protein as analyte, 1:1 binding model
Method: as §2, with “DcR3” for “HVEM”, “50 nM or 200” for “100”

[8] = target: T3, recombinant human FAP; assay: SPR, fusion protein captured by anti-human IgG (Fc) on CM5, recombinant human FAP as analyte, 1:1 binding model
Method: Specifically, the surface of the CM5 chip was activated with a 1:1 mixture of […] NHS (N-hydroxysuccinimide) and 200 nM EDC (1-ethyl-3-(3-dimethylaminopropyl)carbodiimide), and 20 μg/mL of anti-human IgG (Fc) antibody was immobilized for 400 seconds at a rate of 10 μL/min. The remaining active ester groups were blocked with 1 M ethanolamine. T3.01, T3.07, and T3.14 were diluted to 2 μg/mL, 1 μg/mL, and 2 μg/mL, respectively, and reacted on the CM5 chip immobilized with the anti-human IgG (Fc) antibody. The recombinant human FAP was diluted to 50 nM or 100 nM in 1×HBS-EP+buffer solution and diluted by serial dilution. The diluted recombinant human FAP was reacted at a rate of 30 μL/min. The association and dissociation times were 180 seconds and 400 seconds, respectively. After the dissociation step, stabilization was performed for 60 seconds, and then the regeneration step was performed for 30 seconds with a 10 mM glycine pH 1.5 solution at a rate of 30 μL/min.

T5 sequence (P36941 28-227 limits assumed): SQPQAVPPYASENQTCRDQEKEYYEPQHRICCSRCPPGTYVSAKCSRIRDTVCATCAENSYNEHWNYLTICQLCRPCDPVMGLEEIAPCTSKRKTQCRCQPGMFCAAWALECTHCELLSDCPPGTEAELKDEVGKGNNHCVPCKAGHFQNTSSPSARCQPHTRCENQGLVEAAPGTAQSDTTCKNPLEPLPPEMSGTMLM
T4 sequence (P36941 31-435): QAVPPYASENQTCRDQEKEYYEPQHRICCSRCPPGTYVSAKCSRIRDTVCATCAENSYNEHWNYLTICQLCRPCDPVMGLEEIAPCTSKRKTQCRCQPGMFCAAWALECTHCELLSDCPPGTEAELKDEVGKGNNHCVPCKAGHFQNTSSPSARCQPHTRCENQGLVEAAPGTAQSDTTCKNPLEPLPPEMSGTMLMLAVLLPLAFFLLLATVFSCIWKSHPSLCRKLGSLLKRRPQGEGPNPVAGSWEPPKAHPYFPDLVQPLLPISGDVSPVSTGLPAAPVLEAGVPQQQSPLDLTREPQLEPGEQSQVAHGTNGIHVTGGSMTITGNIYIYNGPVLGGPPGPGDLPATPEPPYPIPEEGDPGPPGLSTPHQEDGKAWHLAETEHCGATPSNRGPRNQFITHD

Binder	IL-8 secretion of A375 cells, EC50 (FIG. 15a) [1]	percent of cells bound [2]	EC50 (read off the curve) [3]	binding result [4]	IL-8 secretion of A375 cells, EC50 (FIG. 15b) [1]	Kd [5]	koff [5]	kon [5]	Kd [6]	koff [6]	kon [6]	Kd [7]	koff [7]	kon [7]	Kd [8]	koff [8]	kon [8]
T3.04 (anti-hu FAP/hu scLIGHT3(GGGGS4), hu IgG1 DANG) (bispecific antibody, Knob-into-hole; LIGHT homotrimer with (GGGGS)4 linkers) heavy: QVQLVQSGAEVKKPGASVKVSCKTSRYTFTEYTIHWVRQAPGQRLEWIGGINPNNGIPNYNQKFKGRVTITVDTSASTAYMELSSLRSEDTAVYYCARRRIAYGYDEGHAMDYWGQGTLVTVSSASTKGPSVFPLAPSSKSTSGGTAALGCLVKDYFPEPVTVSWNSGALTSGVHTFPAVLQSSGLYSLSSVVTVPSSSLGTQTYICNVNHKPSNTKVDKKVEPKSCDKTHTCPPCPAPELLGGPSVFLFPPKPKDTLMISRTPEVTCVVVAVSHEDPEVKFNWYVDGVEVHNAKTKPREEQYGSTYRVVSVLTVLHQDWLNGKEYKCKVSNKALPAPIEKTISKAKGQPREPQVYTLPPSRDELTKNQVSLWCLVKGFYPSDIAVEWESNGQPENNYKTTPPVLDSDGSFFLYSKLTVDKSRWQQGNVFSCSVMHEALHNHYTQKSLSLSPGK light: not shown not shown	0.0604 nM	≥ 96%	~4 nM	binds													
T3.07 (anti-hu FAP-hu scLIGHT2/anti-hu FAP-hu LIGHT, hu IgG1 DANG (2 + 1)) (bispecific antibody, Knob-into-hole; two anti-FAP arms, LIGHT dimer and LIGHT monomer at the C-termini of the two heavy chains; two copies of the light chain follow from the (2 + 1) format) heavy 1: QVQLVQSGAEVKKPGASVKVSCKTSRYTFTEYTIHWVRQAPGQRLEWIGGINPNNGIPNYNQKFKGRVTITVDTSASTAYMELSSLRSEDTAVYYCARRRIAYGYDEGHAMDYWGQGTLVTVSSASTKGPSVFPLAPSSKSTSGGTAALGCLVKDYFPEPVTVSWNSGALTSGVHTFPAVLQSSGLYSLSSVVTVPSSSLGTQTYICNVNHKPSNTKVDKKVEPKSCDKTHTCPPCPAPELLGGPSVFLFPPKPKDTLMISRTPEVTCVVVAVSHEDPEVKFNWYVDGVEVHNAKTKPREEQYGSTYRVVSVLTVLHQDWLNGKEYKCKVSNKALPAPIEKTISKAKGQPREPQVYTLPPSRDELTKNQVSLWCLVKGFYPSDIAVEWESNGQPENNYKTTPPVLDSDGSFFLYSKLTVDKSRWQQGNVFSCSVMHEALHNHYTQKSLSLSPGKGGGGSGGGGSEVNPAAHLTGANSSLTGSGGPLLWETQLGLAFLRGLSYHDGALVVTKAGYYYIYSKVQLGGVGCPLGLASTITHGLYKRTPRYPEELELLVSQQSPCGRATSSSRVWWDSSFLGGVVHLEAGEKVVVRVLDERLVRLRDGTRSYFGAFMVGGSGEVNPAAHLTGANSSLTGSGGPLLWETQLGLAFLRGLSYHDGALVVTKAGYYYIYSKVQLGGVGCPLGLASTITHGLYKRTPRYPEELELLVSQQSPCGRATSSSRVWWDSSFLGGVVHLEAGEKVVVRVLDERLVRLRDGTRSYFGAFMV heavy 2: not shown light: not shown		≥ 96%			0.0477 nM	0.935 nM	0.000382 s⁻¹	409000 M⁻¹ s⁻¹	3.99 nM	0.00114 s⁻¹	285000 M⁻¹ s⁻¹	0.598 nM	0.000195 s⁻¹	327000 M⁻¹ s⁻¹	0.303 nM	0.000118 s⁻¹	391000 M⁻¹ s⁻¹
